“And” between values parts separate entries of the source, which are not always exact repeats. Identical values can stand only once.

Experiment [1] concerns the target ElpB_(182–378) (B. burgdorferi) (UniProt H7C7R2). The experiment is described as follows: SPR; Elp truncation amine-coupled to a CMD200 chip; multicycle twofold injection series of C1s enzyme or activated C1s–CCP1–CCP2–SP constructs from 200 nM; HBS-T Ca2+ (10 mM Hepes pH 7.3, 140 mM NaCl, 0.005% Tween-20, 5 mM CaCl2), 30 ul/min; K_(D, kin) from a kinetic and K_(D, ss) from a steady-state 1:1 (Langmuir) fit; triplicate. Background: SPR reads the build-up and loss of mass on a sensor chip optically.

The target of experiment [2] is ElpQ_(181–343) (B. burgdorferi). The description is as above.
For experiment [3], the target named is activated c-Myc-C1s–CCP1–CCP2–SP_(S632A) (human) (UniProt P09871). Description: AlphaScreen or HTRF; competition: 50 nM GST-ElpQ on glutathione donor beads and 500 nM activated c-Myc-C1s–CCP1–CCP2–SP_(S632A) on anti-c-Myc acceptor beads, 12-point twofold dilution of untagged competitor; HBS-T Ca2+, 1 h at room temperature; IC50 taken to approximate KD (Cheng–Prusoff).

In experiment [4] the target is activated C1s–CCP1–CCP2–SP (human) (UniProt P09871).
Experiment [5] addresses ElpB_(111–378) (B. burgdorferi). The experiment is described as follows: SPR; Elp truncation amine-coupled to a CMD200 chip; multicycle twofold injection series of C1s enzyme or activated C1s–CCP1–CCP2–SP constructs from 200 nM; HBS-T Ca2+ (10 mM Hepes pH 7.3, 140 mM NaCl, 0.005% Tween-20, 5 mM CaCl2), 30 ul/min; K_(D, kin) from a kinetic and K_(D, ss) from a steady-state 1:1 (Langmuir) fit; triplicate.

Chain of activated c-Myc-C1s–CCP1–CCP2–SP_(S632A) (human) (P09871 16-688 S632A): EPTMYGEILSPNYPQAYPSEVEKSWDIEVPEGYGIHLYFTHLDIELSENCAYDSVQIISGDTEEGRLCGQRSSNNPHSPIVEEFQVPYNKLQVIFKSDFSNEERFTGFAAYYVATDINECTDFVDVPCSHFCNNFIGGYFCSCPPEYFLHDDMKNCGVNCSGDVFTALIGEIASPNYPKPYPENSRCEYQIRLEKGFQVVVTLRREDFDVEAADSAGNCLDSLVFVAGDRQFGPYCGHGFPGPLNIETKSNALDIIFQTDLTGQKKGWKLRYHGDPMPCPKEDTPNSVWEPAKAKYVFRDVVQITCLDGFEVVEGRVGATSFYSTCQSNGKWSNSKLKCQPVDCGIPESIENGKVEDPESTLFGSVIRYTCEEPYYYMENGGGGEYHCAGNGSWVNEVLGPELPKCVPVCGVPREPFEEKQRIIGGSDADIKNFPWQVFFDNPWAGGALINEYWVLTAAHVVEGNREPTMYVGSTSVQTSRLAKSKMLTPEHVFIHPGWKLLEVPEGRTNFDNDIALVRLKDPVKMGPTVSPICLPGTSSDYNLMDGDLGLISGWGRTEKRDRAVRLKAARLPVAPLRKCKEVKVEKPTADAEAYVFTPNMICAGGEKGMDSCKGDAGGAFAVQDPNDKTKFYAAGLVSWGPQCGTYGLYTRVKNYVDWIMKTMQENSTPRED
Chain of activated C1s–CCP1–CCP2–SP (human) (P09871 292-688): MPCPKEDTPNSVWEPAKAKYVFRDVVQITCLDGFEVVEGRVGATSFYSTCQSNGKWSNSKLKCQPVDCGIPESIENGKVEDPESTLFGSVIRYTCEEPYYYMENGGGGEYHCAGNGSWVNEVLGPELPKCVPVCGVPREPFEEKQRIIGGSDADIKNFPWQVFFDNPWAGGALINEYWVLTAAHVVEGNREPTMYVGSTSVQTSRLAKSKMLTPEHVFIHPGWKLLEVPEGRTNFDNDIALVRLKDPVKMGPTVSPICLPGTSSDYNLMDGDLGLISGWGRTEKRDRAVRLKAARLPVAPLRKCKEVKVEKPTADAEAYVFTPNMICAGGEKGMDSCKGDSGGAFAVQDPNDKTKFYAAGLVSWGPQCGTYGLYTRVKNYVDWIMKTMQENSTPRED

The term Kd denotes the free concentration of one partner at which half of the binding sites on the other are occupied at equilibrium, for simple one-to-one binding. Read a high Kd as a looser complex. As for “C1s CCP1–CCP2–SP CCPE (from UniProt P09871) (domain or fragment)”, the Kd was 570 nM in experiment [1] and 370 nM in experiment [2].
On to “ElpB_(182–378) (from UniProt H7C7R2 182-378) (domain or fragment)”, for which the Kd in experiment [3] was 45 nM.
The same measure, in the same setting: the value for ElpQ_(19–343) (natural protein) was 190 nM.
Turning to ElpQ_(181–343) (domain or fragment), the IC50 of inhibition of C4 cleavage by 6.25 nM activated C1s–CCP1–CCP2–SP, SDS-PAGE densitometry, ElpQ (181–343) 25 to 0.20 uM; blocks m9 with m17 in experiment [4] came to 3600 nM. The substance further registered a Kd in experiment [3] of 110 nM.
“activated C1s–CCP1–CCP2–SP (from UniProt P09871 292-688) (domain or fragment)” gave a Kd in experiment [2] of 210 nM. That is a sub-micromolar value.
Substance “complement component C4 (natural protein)” gave a Kd in experiment [3] of 740 nM. This lies in the sub-micromolar range.
For the substance “purified full-length activated C1s enzyme”, the Kd was 21 nM and 35 nM in experiment [5]; 47 nM and 85 nM in experiment [1]; 17 nM and 31 nM in experiment [2].

Source of the values: PMC9637899.
